From patent publication US20170198050A1 (INHIBRX, published 2017) come the findings set out here.

The target in assay [1] is T1, recombinant human 41BB-mFc fusion protein (human, UniProt Q07011 24-186).
T1 construct: A fusion protein containing 41BB operably linked to a mouse Fc region
In words: ELISA, recombinant 41BB-mFc immobilized on Medisorp plate. How it is done:
Binding was assessed by ELISA wherein recombinant 41BB-mFc protein was immobilized on a Medisorp 96 well plate.
(§1) The 41BB-targeting single domain antibodies (sdAbs) referred to herein as 1G3 (SEQ ID NO: 432), 1H4 (SEQ ID NO: 436), 1H1 (SEQ ID NO: 440), 4H4 (SEQ ID NO: 16), 1H8 (SEQ ID NO: 444), 4F5 (SEQ ID NO: 23), and 4E1 (SEQ ID NO: 20) bind recombinant human 41BB (FIG. 2A), cynomolgus 41BB (FIG. 2B). The 41BB-targeting single domain antibodies (sdAbs) referred to herein as 4F5 (SEQ ID NO: 23), 4H04 (SEQ ID NO: 16), 4E01 (SEQ ID NO: 20), RH03 (SEQ ID NO: 25), and D1 (SEQ ID NO: 29) bind human 41BB expressed on the cell surface of CHO cells (FIG. 3). The 41BB-targeting sdAbs referred to herein as 4H04, RH03, and […]. For FIG. 2A, FIG. 2B, and FIG. 4, binding was assessed by ELISA wherein recombinant 41BB-mFc fusion protein (a fusion protein containing 41BB operably linked to a mouse Fc region) was immobilized on a Medisorp 96 well plate. For FIG. 3, binding was assessed by flow cytometry using 41BB expressing CHO cells, and the data is presented as median fluorescence intensity.
Background: ELISA stands for enzyme-linked immunosorbent assay.

The target of assay [2] is T2, human 41BB expressed on the cell surface (human, UniProt Q07011 24-255).
T2 construct: whole, on cells; also called human 41BB on CHO cells; human 41BB on 293freestyle cells
Description: flow cytometry on 41BB expressing CHO cells.
Text: as §1
Background: Flow cytometry measures light scatter and fluorescence of single cells or particles in a stream.

Assay [3] concerns the target T2, human 41BB expressed on the cell surface. Description: flow cytometry on 41BB expressing 293freestyle cells. Here is the method: The PDL1-41BB targeting fusion proteins of the disclosure include a humanized anti-41BB sequence. In the studies presented herein, the PDL1-41BB targeting fusion proteins of the disclosure include a humanized anti-41BB sequence such as hzRH3v5-1 (SEQ ID NO: 30) and/or hzRH3v9 (SEQ ID NO: 82) bind both human and cynomolgus 41BB (FIGS. 9A, 9B), including human 41BB and cynomolgus 41BB expressed on the surface of CHO cells (FIGS. 9C, 9D). Binding was assessed by flow cytometry on 41BB expressing 293freestyle cells.

T2 sequence (Q07011 24-255): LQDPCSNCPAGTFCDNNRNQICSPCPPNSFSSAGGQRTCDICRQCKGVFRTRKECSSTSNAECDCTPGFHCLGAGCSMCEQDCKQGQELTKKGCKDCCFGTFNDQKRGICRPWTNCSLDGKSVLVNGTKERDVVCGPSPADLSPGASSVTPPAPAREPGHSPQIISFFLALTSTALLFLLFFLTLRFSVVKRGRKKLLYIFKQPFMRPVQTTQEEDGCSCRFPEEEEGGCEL

B1: 1G3 (VHH)
VHH: QVQLVQSGGGLVQPGGSLRLSCAASGFTFSSYAMSWVRQAPGKGLEWVSAIPAGDGSTKYADSVKGRFTISRDNAKNTVYLQMDSLKPEDTAVYFCAKSRGWSTVDDMDYWGKGTQV
notes: also called 41BB-targeting single domain antibody 1G3
On to B1, for which the binding result in assay [1] is given as “binds”.

B2: 4H04 (VHH)
VHH: QVQLQESGGGLVQAGDSLRLSCAASGWAFDNYGMAWFRQAPGKEREFIGRLAWNGGSTDYADSVKGRFTISRDNPKNTLYLQMNNLKPEDTAVYYCARQRSYSGYGIRTPQTYDYWGQGTQVT
notes: also called 4H4
Take B2: the binding result in assay [1] and in assay [2] was “binds” throughout.

B3: 4E01 (VHH)
VHH: QVQLQQSGGGLVQAGDSLRLSCAASGWAFGNYGMAWFRRAPGKEREFIGRLAWNGGSTDYVDSVKGRFTISRDNPKNTLYLQMNNLKPDDTAVYYCARQRSYSRYDIRTPQTYDYWGQGTQVT
notes: also called 4E1
In the case of B3, the binding result in assay [1] and in assay [2] was “binds” throughout.

B4: 4F5 (VHH)
VHH: QVQLVQSGGGLVQPGGSLRLSCAASGWAFDNYGMAWFRQAPGKEREFIGRLAWNGGSTDYADSVKGRFTISRDNPKNTLYLQMNSLKPEDTAVYYCARQRSYSRYGIRAPQTYDYWGQGTQVT
notes: also called 4F05
With B4, the binding result in assay [1] and in assay [2] was “binds” each time.

B5: RH3 (VHH)
VHH: QVQLQESGGGLVQPGGSLRLSCAVSGFSFSINAMGWYRQAPGKRREFLAAIDSGRNTVYAVSVKGRFTISRDNAKNTVYLQMNSLKPEDTAIYYCGLLKGNRVVSPSVAYWGQGTQVT
notes: also called RH03
Consider B5, for which the binding result in assay [2] is “binds”.

B6: 1H4 (VHH)
VHH: QVQLVQSGGGLVQPGGSLRLSCVVSGFTFRSYAMSWVRQAPGKGLEWVSTINSGESSTKYADSVKGRFTISRDDAKNTLYLQMSDLKPEDTAVYFCAKHRGWSTVDDINYWGKGTQV
notes: also called 41BB-targeting single domain antibody 1H4
As to B6, the binding result in assay [1] was “binds”.

B7: 1H8 (VHH)
VHH: EVQLVQSGGGLVQPGGSLRLSCAASGFTFSSYYMSWVRQAPGKGLEWVSTISTNTGGGSTYYAYADSVKGRFTISRDNAKNTLYLEMNSLKPEDTAQYYCVRTRWEGVYDYWGLGTQV
notes: also called 41BB-targeting single domain antibody 1H8
Consider B7, for which the binding result in assay [1] is “binds”.

B8: D1 (VHH)
VHH: EVQPVQSGGGLVQAGESLRLSCAASATIFSNNAMGWYRQAPGKQRELVATITTGGFTNYRDSVKGRFDISRDNAKNTVYLQMNNLKPEDTAVYYCNVVLRYSRDYSYTTVKEYWGQGTQV
notes: also called 41BB-targeting single domain antibody D1
B8: the binding result in assay [2] is “binds”.

B9: hzRH3v5-1 (VHH)
VHH: EVQLLESGGGEVQPGGSLRLSCAASGFSFSINAMGWYRQAPGKRREFVAAIESGRNTVYAESVKGRFTISRDNAKNTVYLQMSSLRAEDTAVYYCGLLKGNRVVSPSVAYWGQGTLVTVKP
Regarding B9, in assay [3], the binding result is on record as “binds”.

B10: hzRH3v9 (VHH)
VHH: EVQLLESGGGEVQPGGSLRLSCAASGFSFSINAMGWYRQAPGKGREFVAAIESGRNTVYAESVKGRFTISRDNAKNTVYLQMSSLRAEDTAVYYCGLLKGNRVVSPSVAYWGQGTLVTVKP
In the case of B10, in assay [3], the binding result was “binds”.

B11: 1H1 (VHH)
VHH: QVQLVQSGGGLVQPGGSLRLSCAASGFTFDDHAMSWVRQAPGKGLEWVSAISWNGHYTYYAESMKGRFAISRDNAKNTLYLQMNSLKSEDTAVYYCVKGWRGSYTRDRPFASWGQGTQV
notes: also called 41BB-targeting single domain antibody 1H1
As for B11, the binding result in assay [1] is “binds”.
